How the values were obtained:
[1] = target: the molecule itself; assay: cross-linking; 10 ul with 12.5 mM Na phosphate pH 7.2, 12.5 mM NaCl, 2.5% glycerol, 1 x 10^-3% glutaraldehyde, 4 ug of protein; 15 min on ice; SDS-PAGE and Western blot with anti-His antibody
[2] = target: T1, RelA (Escherichia coli, full length, His-tagged) (Escherichia coli, UniProt P0AG20 1-744); assay: as above; conditions: both partners purified
T1 construct: RelA, (p)ppGpp synthetase of Escherichia coli, 84 kDa, 744 AA (NTD AAs 1-455, CTD AAs 405-744); also called WT RelA; WT-RelA; source: E. coli CF9467 (pQE30-relA), purified (Ni-NTA agarose); not shown: His6, N-terminal, kept
T1 sequence (looked up): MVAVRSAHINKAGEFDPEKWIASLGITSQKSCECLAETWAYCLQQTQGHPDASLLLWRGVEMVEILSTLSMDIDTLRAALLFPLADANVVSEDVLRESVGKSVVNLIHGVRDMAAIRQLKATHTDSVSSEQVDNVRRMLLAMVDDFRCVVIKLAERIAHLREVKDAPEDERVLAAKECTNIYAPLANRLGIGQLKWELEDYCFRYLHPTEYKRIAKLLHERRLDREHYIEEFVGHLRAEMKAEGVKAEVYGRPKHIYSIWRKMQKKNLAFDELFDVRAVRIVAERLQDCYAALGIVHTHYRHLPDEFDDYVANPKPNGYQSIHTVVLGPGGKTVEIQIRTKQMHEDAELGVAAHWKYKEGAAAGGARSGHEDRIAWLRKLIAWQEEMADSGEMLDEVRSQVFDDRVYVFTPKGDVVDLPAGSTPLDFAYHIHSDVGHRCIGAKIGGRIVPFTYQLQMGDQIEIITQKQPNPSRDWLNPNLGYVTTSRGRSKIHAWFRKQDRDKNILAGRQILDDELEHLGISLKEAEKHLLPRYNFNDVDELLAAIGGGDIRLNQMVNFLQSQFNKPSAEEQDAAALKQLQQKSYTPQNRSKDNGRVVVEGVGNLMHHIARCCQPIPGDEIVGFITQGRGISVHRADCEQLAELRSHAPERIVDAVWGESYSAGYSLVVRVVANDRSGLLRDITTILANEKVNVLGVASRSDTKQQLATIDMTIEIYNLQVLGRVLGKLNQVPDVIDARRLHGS

B1: YG4 (fragment of the RelA C-terminal domain, AA 564-744, His-tagged) (domain or fragment, Escherichia coli, UniProt P0AG20 564-744, looked up)
chain: FNKPSAEEQDAAALKQLQQKSYTPQNRSKDNGRVVVEGVGNLMHHIARCCQPIPGDEIVGFITQGRGISVHRADCEQLAELRSHAPERIVDAVWGESYSAGYSLVVRVVANDRSGLLRDITTILANEKVNVLGVASRSDTKQQLATIDMTIEIYNLQVLGRVLGKLNQVPDVIDARRLHGS
notes: RelA of Escherichia coli, AA 564-744 (MW 21 kDa); holds the RIS domain (AA 585-660) and the ACT domain (AA 665-744); also called native YG4; WT-YG4; source: E. coli CF9467 (pYG4), purified (Ni-NTA agarose); not shown: His6, N-terminal, kept
**Q.** Does B1 bind [1]?
**A.** binds

**Q.** Does B1 bind [2]?
**A.** binds

From article PMC7669825, “Escherichia coli RelA Regulation via Its C-Terminal Domain” (Frontiers in Microbiology, 2020)
